Columns and labels:
[1] = test system: DNA-induced HP1α phase separated droplets; experiment: in vitro droplet assay; conditions: 50 µM HP1α, 0.18 µM 601 DNA
Excerpt: For droplet assays, cDNA of full-length HP1α was cloned into a pET28 expression vector. His-tag fusion HP1α was expressed in E. coli and purified as in ref. [51]. cDNA of the KAP1FR fragment (aa 114–834) was cloned into a pCAG-GFP expression vector, and the P486A/V488A/L490A mutant of GFP-KAP1FR was generated using overlap extension PCR. Purification of GFP-KAP1FR proteins was described in ref. [52].
For the droplet assay, Widom 601 DNA was amplified by PCR using a plasmid coding for 12× 601 DNA with primers as follows: 601 DNA_F: […] and 601 DNA_R: TGCACAGGATGTATATATCTGACAC. HP1α was concentrated to ~10 µg/µl using Amicon concentrators. The buffer changes for both HP1α and GFP-KAP1FR solutions were carried out using Zeba™ Spin Desalting Columns with a buffer containing 20 mM HEPES at pH 7.2, 75 mM KCl, and 1 mM DTT. For visualization of His-tagged-HP1α within the droplets, 500 ng of protein was labeled with the 647 N fluorescent label using the Monolith NT™ Protein Labeling Kit RED-NHS from Nano Temper. To form HP1α droplets, 50 µM of HP1α was incubated with 0.18 µM of 601 DNA for 3 min and dropped into ibidi chamber (µ-Slide 18 Well). Subsequently, 50 ng of the labeled HP1α and 100 ng of GFP-KAP1FR (wild type or mutant) were added into HP1α/DNA droplets. The images of the droplets were collected using a Nikon TiE microscope equipped with a Yokogawa CSU-W1 spinning-disk confocal unit (50 μm pinhole size), an Andor Borealis illumination unit, Andor ALC600 laser beam combiner (405 nm/488 nm/561 nm/640 nm), Andor IXON 888 Ultra EMCCD camera, and a Nikon 100×/1.45 NA oil immersion objective. The size and intensity of HP1α phase-separated droplets were analyzed using ImageJ.

[2] = test system: endogenous HP1α in KAP1^−/− ESCs; experiment: immunofluorescence of endogenous HP1α; type: cell-based; conditions: KAP1^−/− mouse ESCs stably expressing the GFP-labeled construct, anti-HP1α antibody, DAPI
Protocol: The constructs coding for GFP-KAP1RF and the P486A/V488A/L490A mutant were transfected into 1 ×10^5 KAP1^−/− mouse ESCs using Lipofectamine 3000 (Invitrogen). Forty-eight hours post-transfection, cells were trypsinized and plated at a colony density in selection medium containing 10 μg/ml blasticidin (Thermo Fisher Sci) for one week. The selection process was repeated once to establish stable GFP-KAP1 expressing cell lines.
For immunostaining, mouse ESCs were cultured on Geltrex-coated coverslips (Life Technologies) in DMEM supplemented with 16% fetal bovine serum, 0.1 mM β-mercaptoethanol (Invitrogen), 2 mM L-glutamine, 1× MEM non-essential amino acids, 100 U/ml penicillin, 100 µg/ml streptomycin (PAA), 2i (1 μM PD032591 and 3 μM CHIR99021 (Axon Medchem, Netherlands) and 1000 U/ml recombinant LIF (Millipore). Coverslips were rinsed twice with PBS (pH 7.4; 140 mM NaCl, 2.7 mM KCl, 6.5 mM Na2HPO4, 1.5 mM KH2PO4), followed by fixation with 3.7% formaldehyde (Sigma) for 10 min. Fixed cells were washed three times (10 min each) with PBST (PBS + 0.01% Tween-20), permeabilized in 0.5% Triton X-100 for 10 min, and washed twice (10 min each) with PBST. Primary and secondary antibodies were prepared in blocking solution (PBST + 3% BSA). […]

B1: GFP-KAP1FR-PVLmut: P486A/V488A/L490A mutant of GFP-KAP1FR impaired in HP1α binding (protein)
chain: VVDCPVCKQQCFSKDIVENYFMRDSGSKAATDAQDANQCCTSCEDNAPATSYCVECSEPLCETCVEAHQRVKYTKDHTVRSTGPAKSRDGERTVYCNVHKHEPLVLFCESCDTLTCRDCQLNAHKDHQYQFLEDAVRNQRKLLASLVKRLGDKHATLQKSTKEVRSSIRQVSDVQKRVQVDVKMAILQIMKELNKRGRVLVNDAQKVTEGQQERLERQHWTMTKIQKHQEHILRFASWALESDNNTALLLSKKLIYFQLHRALKMIVDPVEPHGEMKFQWDLNAWTKSAEAFGKIVAERPGTNSTGPAPMAPPRAPGPLSKQGSGSSQPMEVQEGYGFGSGDDPYSSAEPHVSGVKRSRSGEGEVSGLMRKVARASAERLDLDLTADSQPPVFKVFPGSTTEDYNLIVIERGAAAAATGQPGTAPAGTPGAPPLAGMAIVKEEETEAAIGAPPTATEGPETKPVLMALAEGPGAEGPRLASPSGSTSSGLEVVAPEGTSAPGGGPGTLDDSATICRVCQKPGDLVMCNQCEFCFHLDCHLPALQDVPGEEWSCSLCHVLPDLKEEDGSLSLDGADSTGVVAKLSPANQRKCERVLLALFCHEPCRPLHQLATDSTFSLDQPGGTLDLTLIRARLQEKLSPPYSSPQEFAQDVGRMFKQFNKLTEDKADVQSIIGLQRFFETRMNEAFGDTKFSAVLVEPPPMSLPGAGLSSQELSGGPGDG
modifications: left off: GFP, end not stated, kept
With B1 the “sequestration of 647N labeled HP1α into droplets” value ([1]; 20 mM HEPES pH 7.2, 75 mM KCl, 1 mM DTT, 100 ng GFP-KAP1FR, 50 ng labeled HP1α) was “unable to sequester 647N labeled HP1α into the condensed phase”, the “localization of GFP-KAP1FR in droplets” value ([1]; confocal microscopy) was “concentrated at the periphery of the droplets” and the “distribution of endogenous HP1α (puncta)” value [2] was “more dispersed and formed smaller and fewer puncta”.

Source: paper PMC12126490, “The HP1 box of KAP1 organizes HP1α for silencing of endogenous retroviral elements in embryonic stem cells” (Nature Communications, 2025)
